Target: the molecule itself
Experiment: native MS; detergent-purified NHA2ΔN exchanged into C12E9, ~20 μM, Q-Exactive Orbitrap modified for high m/z

B1: bison NHA2ΔN (SLC9B2 without the first 69 residues), GFP-TwinStrep-His8 tag removed with TEV protease (domain or fragment, Bison bison)
chain: RRRQIHACPPRGLLARVITNVTMVILLWAVVWSVTGSECLPGGNLFGIIMLFYCAIIGGKLFGLIKLPTLPPLPPLLGMLLAGFLIRNVPVISDNIQIKHKWSSALRSIALSVILVRAGLGLDSNALKKLKGVCVRLSLGPCLIEACTSAVLAYFLMGLPWQWGFMLGFVLGAVSPAVVVPSMLLLQEGGYGVEKGIPTLLMAAGSFDDILAITGFNTCLGMAFSTGSTVFNVLKGVLEVIIGVVTGLVLGFFIQYFPSSDQDNLVWKRAFLVLGLSVLAVFSSTYFGFPGSGGLCTLVTAFLAGRGWASTKTDVEKVIAVAWDIFQPLLFGLIGAEVLITALRPETIGLCVATLGIAVLIRILVTYLMVCFAGFNIKEKIFISFAWLPKATVQAAIGSVALDTARSHGEKQLEGYGMDVLTVAFLSIIITAPVGSLLIGLLGPRLLQKAEQNKDEEDQGETSIQV
notes: Na+/H+ exchanger NHA2 (SLC9B2), Bison bison, without the first 69 residues of the N-terminal tail; numbers count on: the full-length bison NHA2 as printed; residues of it stay on the C-terminus after digestion; also called biNHA2ΔN; source: S. cerevisiae FGY217, purified (DDM/CHS, Ni-NTA, TEV digestion, SEC); for nanodiscs reconstituted as GFP fusion with MSP1E2 and yeast PI, then TEV digestion …
stoichiometry N: 2

Source: paper PMC8850199, “Structure, mechanism and lipid-mediated remodeling of the mammalian Na^+/H^+ exchanger NHA2” (Nature Structural & Molecular Biology, 2022)
